Results published in PMC6910828 (2019).

How the values were obtained:
[1] = biological target: Cy3-labelled, prenylated Cdc42, wild type, GDP-bound (Cy3 at the N-terminus (Cy3 N-t labeled LPETGG peptide joined by sortase); geranylgeranyl by in vitro prenylation (C-terminal prenyl moiety); GDP-bound); assay: GDP-bound; extraction from supported lipid bilayers
[2] = biological target: Cy3-labelled, prenylated Rho, wild type, GDP-bound (Cy3 at the N-terminus (Cy3 N-t labeled LPETGG peptide joined by sortase); geranylgeranyl by in vitro prenylation (C-terminal prenyl moiety); GDP-bound); assay: as above
[3] = biological target: Cy3-labelled, prenylated Rho G14V, GTPγS-bound (Cy3 at the N-terminus (Cy3 N-t labeled LPETGG peptide joined by sortase); geranylgeranyl by in vitro prenylation (C-terminal prenyl moiety); GTPγS-bound); assay: GTPγS-bound; extraction from supported lipid bilayers
[4] = biological target: Cy3-labelled, prenylated Cdc42 G12V, GTPγS-bound (Cy3 at the N-terminus (Cy3 N-t labeled LPETGG peptide joined by sortase); geranylgeranyl by in vitro prenylation (C-terminal prenyl moiety); GTPγS-bound); assay: as above
[5] = biological target: Cy3-labelled, prenylated Cdc42 Q61L, GTP-bound (Cy3 at the N-terminus (Cy3 N-t labeled LPETGG peptide joined by sortase); geranylgeranyl by in vitro prenylation (C-terminal prenyl moiety); GTP-bound); assay: GTP-bound; extraction from supported lipid bilayers
[6] = biological target: Cy3-labelled, prenylated Rho Q63L, GTP-bound (Cy3 at the N-terminus (Cy3 N-t labeled LPETGG peptide joined by sortase); geranylgeranyl by in vitro prenylation (C-terminal prenyl moiety); GTP-bound); assay: as above
Cy3-labelled, prenylated Rho Q63L, GTP-bound (Cy3 at the N-terminus (Cy3 N-t labeled LPETGG peptide joined by sortase); geranylgeranyl by in vitro prenylation (C-terminal prenyl moiety); GTP-bound), sequence (chain, as listed by the source Q63L): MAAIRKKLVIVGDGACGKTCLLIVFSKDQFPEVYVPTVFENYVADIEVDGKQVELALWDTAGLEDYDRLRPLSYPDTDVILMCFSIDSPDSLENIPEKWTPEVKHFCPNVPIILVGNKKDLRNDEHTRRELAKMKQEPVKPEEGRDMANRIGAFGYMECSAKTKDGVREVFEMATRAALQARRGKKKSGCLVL

Cy3-labelled, prenylated Cdc42, wild type, GDP-bound (Cy3 at the N-terminus (Cy3 N-t labeled LPETGG peptide joined by sortase); geranylgeranyl by in vitro prenylation (C-terminal prenyl moiety); GDP-bound), sequence (P60953 whole entry): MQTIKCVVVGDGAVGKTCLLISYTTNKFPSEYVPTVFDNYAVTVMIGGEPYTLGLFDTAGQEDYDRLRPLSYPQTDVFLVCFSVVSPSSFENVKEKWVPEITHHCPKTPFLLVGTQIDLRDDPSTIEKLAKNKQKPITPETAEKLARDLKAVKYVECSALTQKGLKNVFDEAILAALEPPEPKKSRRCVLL
Cy3-labelled, prenylated Cdc42 Q61L, GTP-bound (Cy3 at the N-terminus (Cy3 N-t labeled LPETGG peptide joined by sortase); geranylgeranyl by in vitro prenylation (C-terminal prenyl moiety); GTP-bound), sequence (chain, as listed by the source Q61L): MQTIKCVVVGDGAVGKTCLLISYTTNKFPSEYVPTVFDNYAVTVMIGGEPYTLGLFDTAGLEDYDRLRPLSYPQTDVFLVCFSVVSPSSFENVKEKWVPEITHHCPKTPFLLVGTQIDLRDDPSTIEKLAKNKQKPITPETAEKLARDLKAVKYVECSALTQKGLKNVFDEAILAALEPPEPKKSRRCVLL
Cy3-labelled, prenylated Cdc42 G12V, GTPγS-bound (Cy3 at the N-terminus (Cy3 N-t labeled LPETGG peptide joined by sortase); geranylgeranyl by in vitro prenylation (C-terminal prenyl moiety); GTPγS-bound), sequence (chain, as listed by the source G12V): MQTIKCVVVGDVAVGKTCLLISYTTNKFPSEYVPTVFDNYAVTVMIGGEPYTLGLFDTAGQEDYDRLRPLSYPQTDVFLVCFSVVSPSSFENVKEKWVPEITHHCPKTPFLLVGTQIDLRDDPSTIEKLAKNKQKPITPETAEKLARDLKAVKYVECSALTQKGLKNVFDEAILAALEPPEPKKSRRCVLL
Cy3-labelled, prenylated Rho, wild type, GDP-bound (Cy3 at the N-terminus (Cy3 N-t labeled LPETGG peptide joined by sortase); geranylgeranyl by in vitro prenylation (C-terminal prenyl moiety); GDP-bound), sequence (chain, as listed by the source): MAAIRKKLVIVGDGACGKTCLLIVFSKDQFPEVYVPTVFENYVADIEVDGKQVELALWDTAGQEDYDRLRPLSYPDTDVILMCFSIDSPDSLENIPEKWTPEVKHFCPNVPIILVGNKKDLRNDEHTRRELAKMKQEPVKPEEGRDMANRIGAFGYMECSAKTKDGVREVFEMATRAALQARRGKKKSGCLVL
Cy3-labelled, prenylated Rho G14V, GTPγS-bound (Cy3 at the N-terminus (Cy3 N-t labeled LPETGG peptide joined by sortase); geranylgeranyl by in vitro prenylation (C-terminal prenyl moiety); GTPγS-bound), sequence (chain, as listed by the source G14V): as the sequence (chain, as listed by the source Q63L) above, with G14V, L63Q counted along it

Kd [1]: 3.41 µM | Kd [2]: 5.77 µM | Kd [3]: 5.43 µM | Kd [4]: 4.95 µM | Kd [5]: 14.4 µM | Kd [6]: 19.6 µM
B1: Xenopus laevis RhoGDI, wild type (natural protein)
chain: MAEHEPTPEQLHQIAAENQDEEHSVDYKPPAQKSIKEIQELDQDDESLRKYKEALLGSLPSSADPEASNVVVTKLTLLCDCAPGPLELDLTGDLEKFKKQSFTLKEGVEYRIKISFKVNKEIVSGLRYQQQTYRKGVRLDRTRYMVGSYGPRVDEYEFLTPIEEAPNGMLARGCYNIKSLFTDDDKSNHLSWEWNLHIKNDWKS
